Test results as given in article PMC10977697 (PLOS ONE, 2024).

B1: PCSK9_CnTx1 (designed binder)
chain: ECKGKGAKCSYYMGIDKGYVNYCCTGSCRSGKC
notes: Conotoxin-MVIIA scaffold
B2: PCSK9_CnTx1 displayed on M13 phage (designed binder)
chain: B1 chain
notes: Conotoxin-MVIIA scaffold

Legend:
[1] = target: T1, PCSK9 (human, UniProt Q8NBP7 31-692, biotin on lysines (Sulfo-NHS-LC-biotin)); assay: SPR; details: both partners purified
T1 construct: also called PCSK9FL; hPCSK9 FL

[2] = target: T2, PCSK9ΔCRD (PCSK9 lacking the C-terminal Cys-rich domain CRD) (human, UniProt Q8NBP7 31-452, biotin on lysines (Sulfo-NHS-LC-biotin)); assay: ELISA; details: one partner purified
T2 construct: also called PCSK9DCRD; PCSK9dCRDTEV
T2 sequence (Q8NBP7 31-452, stated change not applied): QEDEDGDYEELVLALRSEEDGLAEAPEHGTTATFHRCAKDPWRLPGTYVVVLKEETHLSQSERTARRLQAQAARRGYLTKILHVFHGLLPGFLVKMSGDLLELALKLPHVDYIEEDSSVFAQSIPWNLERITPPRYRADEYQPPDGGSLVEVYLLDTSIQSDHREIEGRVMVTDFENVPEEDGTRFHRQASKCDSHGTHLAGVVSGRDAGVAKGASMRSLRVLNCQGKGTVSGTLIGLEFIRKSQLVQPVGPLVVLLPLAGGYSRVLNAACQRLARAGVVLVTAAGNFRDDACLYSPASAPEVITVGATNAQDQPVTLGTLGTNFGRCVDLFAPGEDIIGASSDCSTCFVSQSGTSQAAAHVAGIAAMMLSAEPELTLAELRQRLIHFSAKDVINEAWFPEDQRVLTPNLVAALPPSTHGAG

T1 sequence (Q8NBP7 31-692): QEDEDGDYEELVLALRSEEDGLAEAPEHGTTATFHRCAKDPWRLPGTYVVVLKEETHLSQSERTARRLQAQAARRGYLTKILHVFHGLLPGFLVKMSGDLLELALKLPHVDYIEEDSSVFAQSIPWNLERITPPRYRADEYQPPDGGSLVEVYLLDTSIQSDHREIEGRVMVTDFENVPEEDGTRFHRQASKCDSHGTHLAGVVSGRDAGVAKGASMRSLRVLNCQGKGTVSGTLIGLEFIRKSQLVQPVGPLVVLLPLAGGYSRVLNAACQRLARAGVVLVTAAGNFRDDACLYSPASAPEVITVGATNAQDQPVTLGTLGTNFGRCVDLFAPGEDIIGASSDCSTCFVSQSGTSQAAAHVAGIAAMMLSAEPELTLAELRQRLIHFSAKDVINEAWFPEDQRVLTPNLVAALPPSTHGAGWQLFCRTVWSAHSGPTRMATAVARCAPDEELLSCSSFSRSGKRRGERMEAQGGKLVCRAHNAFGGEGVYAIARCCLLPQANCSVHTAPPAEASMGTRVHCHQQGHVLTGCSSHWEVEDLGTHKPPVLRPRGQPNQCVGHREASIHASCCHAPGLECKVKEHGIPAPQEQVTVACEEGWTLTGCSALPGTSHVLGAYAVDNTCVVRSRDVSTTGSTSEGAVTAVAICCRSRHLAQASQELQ

Binder | Kd [1] [µM] | ELISA [2] | s/n Ratio [2]
B1 | 4.5 | – | –
B2 | – | 2 | 29.7
